Measurements from the supplement of paper PMC10567573.

B1: TRIM14 (parent)
chain: YARTPTLDPDTMHARLRLSADRLT

Variants of: B1
Test: protein stability index of a GFP-peptide fusion (GPS, HEK-293T) (PSI 1-6); higher = more stable
Settings: c terminus: a fixed tail appended
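Further: lentivirally expressed fusions sorted by FACS into six bins by GFP to DsRed ratio, PSI derived from sequencing read proportions per bin multiplied by bin number.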

Protein stability index of substitutions, site by site:
D8: N 2.58 | M 2.22 | Y 1.8 | V 2.78 | L 2.41 | Q 2.52 | H 1.87 | E 2.26 | W 2.08 | F 2.5 | I 2.24 | A 2.15 | R 1.98 | T 2.45 | G 2.18 | C 2.1 | S 2.5 | P 2.41 | K 2.95
A2: N 3.09 | R 2.85 | L 2.77 | V 1.89 | S 2.44 | K 2.98 | T 2.46 | M 2.69 | W 2.5 | P 3.9 | Q 2.71 | Y 2.9
T6: I 2.1 | N 1.96 | F 2.24 | E 2.94 | G 2.37 | R 1.94 | H 2.44 | V 2.22 | M 2.71 | K 2.33 | Y 1.94 | L 2.56 | D 3.4 | W 2.79 | P 2.3 | Q 2.33 | A 2.64 | C 2.34 | S 2.28
P5: N 2 | I 2.17 | Q 2.56 | K 3.12 | Y 2.11 | S 2.16 | W 2.37 | L 2.34 | F 2.06 | V 1.96 | G 2.88 | C 2.18 | R 1.98 | M 1.54 | H 2.84 | A 2.08 | E 2.62 | D 3.57
P9: Y 2.22 | W 2.17 | S 2.04 | A 2.82 | D 2.98 | T 2.58 | K 3.15 | Q 2.56 | M 3.07 | N 3.11 | V 2.41 | R 2.96 | E 2.56 | I 2.3 | H 2.92 | C 2.1 | L 2.1 | G 3.11 | F 2.21
T11: C 2.94 | E 3.46 | G 2.39 | A 2.68 | F 2.04 | D 3.07
D10: T 2.66 | Y 2.34 | K 3.05 | F 1.64 | E 2.66 | W 3.31 | G 2.48 | S 3.77 | M 2.4 | C 2.22 | P 2.31 | L 2.05 | V 2.78 | Q 2.56 | A 1.98 | I 2 | H 2.29 | N 3.23
R3: K 2.87 | C 3.02 | D 3.8 | I 2.57 | E 2.18 | L 3.34 | G 2.78 | F 1.85 | Y 1.83 | M 2.53 | T 3.05 | H 3.12 | N 3.14 | S 2.86 | Q 3.81 | V 3 | P 1.76 | A 2.66 | W 1.92
T4: F 2.21 | E 4.06 | Y 2.32 | D 2.6 | S 2.47 | C 1.95 | N 3.1 | H 2.67 | V 2.78 | I 3.04 | M 2.45 | G 2.21 | L 2.16 | W 1.17 | R 3.13 | P 2.95 | A 2.37 | K 2.61 | Q 2.84
L7: E 3.65 | D 3.54 | A 2.75 | G 2.44 | V 3.33 | I 1.94 | H 2.65 | S 2.98 | N 2.54 | C 2.1 | Y 2.63 | R 2.76 | Q 2.81 | F 2.54 | T 2.46 | W 2.31 | M 2.81 | K 2.56
